Test results taken from PMC6133988, “Characterization of Arabidopsis thaliana Hydroxyphenylpyruvate Reductases in the Tyrosine Conversion Pathway” (Frontiers in Plant Science, 2018).

Columns and labels:
Test in all cases: LC-MRM-MS product quantification, non-linear regression
Type in all cases: biochemical, Arabidopsis thaliana
[1] = substrate: O=C(O)C(=O)Cc1ccccc1; settings: NADPH (2 mM), 100 mM potassium phosphate pH 7.0, 4 mM DTT, 40 μM ascorbate, 30 °C
Text: (§1) LC-MRM-MS product quantification, non-linear regression on HPPR3

[2] = substrate: O=C(O)C(=O)CO; settings: NADPH (2 mM), 100 mM potassium phosphate pH 7.0, 4 mM DTT, 40 μM ascorbate, 30 °C
Text: as §1

[3] = substrate: O=C(O)C(=O)Cc1ccc(O)cc1; settings: NADPH (2 mM), 100 mM potassium phosphate pH 7.0, 4 mM DTT, 40 μM ascorbate, 30 °C
Text: as §1

[4] = substrate: O=C(O)C(=O)CO; settings: NADH (2 mM), 100 mM potassium phosphate pH 7.0, 4 mM DTT, 40 μM ascorbate, 30 °C
Text: LC-MRM-MS product quantification, non-linear regression on HPR1

[5] = substrate: O=C(O)C(=O)Cc1ccccc1; settings: NADPH (2 mM), 100 mM potassium phosphate pH 7.0, 4 mM DTT, 40 μM ascorbate, 30 °C; remark: listed apart in the source
Text: (§2) LC-MRM-MS product quantification, non-linear regression on HPPR2

[6] = substrate: O=C(O)C(=O)CO; settings: NADPH (2 mM), 100 mM potassium phosphate pH 7.0, 4 mM DTT, 40 μM ascorbate, 30 °C; remark: listed apart in the source
Text: as §2

[7] = substrate: O=C(O)C(=O)Cc1ccc(O)cc1; settings: NADPH (2 mM), 100 mM potassium phosphate pH 7.0, 4 mM DTT, 40 μM ascorbate, 30 °C; remark: listed apart in the source
Text: as §2

B1: HPPR3 (Arabidopsis thaliana) (protein)
chain: MAESSEPPVVLLHRPPSLTFMDEILTREFRTLITDTSSSESLPSFFPRHASSARAFVISGRLPVTDELLSHLPSLQILVCTSVGIDHIDLAACKRRGIVITNAGNAFSDDVADCAVGLLISVLRRIPAADRYVRSGNWAKFGDFQLGSKVSGKRVGIVGLGSIGSFVAKRLESFGCVISYNSRSQKQSSPYRYYSDILSLAENNDVLVLCCSLTDETHHIVNREVMELLGKDGVVINVGRGKLIDEKEMVKCLVDGVIGGAGLDVFENEPAVPQELFGLDNVVLSPHFAVATPGSLDNVAQIALANLKAFFSNRPLLSPVQLD
notes: coding region from Arabidopsis cDNA in pDEST17, His-tagged, E. coli, Ni-NTA purified
Km [1]: 1520 ± 50 µM
kcat [1]: 0.611 ± 0.0692 s⁻¹
kcat/Km [1]: 402 ± 49.2 M⁻¹ s⁻¹
Km [2]: 3570 ± 480 µM
kcat [2]: 0.0518 ± 0.0035 s⁻¹
kcat/Km [2]: 14.8 ± 2.83 M⁻¹ s⁻¹
Km [3]: 370 ± 60 µM
kcat [3]: 0.285 ± 0.0158 s⁻¹
kcat/Km [3]: 785 ± 87.3 M⁻¹ s⁻¹

B2: HPR1 (Arabidopsis thaliana) (protein)
chain: MAKPVSIEVYNPNGKYRVVSTKPMPGTRWINLLVDQGCRVEICHLKKTILSVEDIIDLIGDKCDGVIGQLTEDWGETLFSALSKAGGKAFSNMAVGYNNVDVEAANKYGIAVGNTPGVLTETTAELAASLSLAAARRIVEADEFMRGGLYEGWLPHLFVGNLLKGQTVGVIGAGRIGSAYARMMVEGFKMNLIYFDLYQSTRLEKFVTAYGQFLKANGEQPVTWKRASSMEEVLREADLISLHPVLDKTTYHLVNKERLAMMKKEAILVNCSRGPVIDEAALVEHLKENPMFRVGLDVFEEEPFMKPGLADTKNAIVVPHIASASKWTREGMATLAALNVLGRVKGYPIWHDPNRVDPFLNENASPPNASPSIVNSKALGLPVSKL
notes: as for B1
Km [4]: 1530 ± 720 µM
kcat [4]: 3.46 ± 0.0838 s⁻¹
kcat/Km [4]: 2570 ± 1040 M⁻¹ s⁻¹

B3: HPPR2 (Arabidopsis thaliana) (protein)
chain: MESIGVLMMCPMSSYLENELEKRFNLLRFWTSPEKSVLLETHRNSIRAVVGNASAGADAQLISDLPNLEIVSSFSVGLDKIDLGKCKEKGIRVTNTPDVLTEDVADLAIGLILALLRRLCECDRYVRSGKWKQGEFQLTTKFSGKSVGIIGLGRIGTAIAKRAEAFSCPINYYSRTIKPDVAYKYYPTVVDLAQNSDILVVACPLTEQTRHIVDRQVMDALGAKGVLINIGRGPHVDEQELIKALTEGRLGGAALDVFEQEPHVPEELFGLENVVLLPHVGSGTVETRNAMADLVVGNLEAHFSGKSLLTPVV
notes: as for B1
Km [5]: 3700 ± 750 µM
kcat [5]: 0.0333 ± 0.00983 s⁻¹
kcat/Km [5]: 9 ± 1.17 M⁻¹ s⁻¹
Km [6]: 1050 ± 390 µM
kcat [6]: 0.926 ± 0.0788 s⁻¹
kcat/Km [6]: 950 ± 296 M⁻¹ s⁻¹
Km [7]: 800 ± 160 µM
kcat [7]: 0.122 ± 0.0085 s⁻¹
kcat/Km [7]: 157 ± 36.3 M⁻¹ s⁻¹
